Experimental data from patent US20230145060A1.
Read-outs that look alike come from different tables or passages of the source.

Columns and labels:
Assay in all cases: cell-based or functional assay
[1] = target: HIV-1 Env of pseudovirus 278 (HIV-1)
[2] = target: HIV-1 Env of pseudovirus 3817 (HIV-1)
[3] = target: HIV-1 Env of pseudovirus BG505 (HIV-1)
[4] = target: HIV-1 Env of pseudovirus Du422 (HIV-1)
[5] = target: HIV-1 Env of pseudovirus JRCSF (HIV-1) (UniProt P20871)
[6] = target: HIV-1 Env of pseudovirus PV0 (HIV-1)
[7] = target: HIV-1 Env of pseudovirus T257 (HIV-1)
[8] = target: HIV-1 Env of pseudovirus THRO (HIV-1)
[9] = target: HIV-1 Env of pseudovirus X1632 (HIV-1)
[10] = target: HIV-1 Env of pseudovirus X2088 (HIV-1)
[11] = target: HIV-1 Env of pseudovirus ZM106 (HIV-1)
[12] = target: HIV-1 Env of pseudovirus ZM197 (HIV-1)
[13] = target: HIV-1 Env of pseudovirus pCNE8 (HIV-1)
[14] = target: HIV-1 Env of pseudovirus 278 (HIV-1); remark: listed apart in the source
[15] = target: HIV-1 Env of pseudovirus 3817 (HIV-1); remark: listed apart in the source
[16] = target: HIV-1 Env of pseudovirus BG505 (HIV-1); remark: listed apart in the source
[17] = target: HIV-1 Env of pseudovirus Du422 (HIV-1); remark: listed apart in the source
[18] = target: HIV-1 Env of pseudovirus JRCSF (HIV-1) (UniProt P20871); remark: listed apart in the source
[19] = target: HIV-1 Env of pseudovirus PV0 (HIV-1); remark: listed apart in the source
[20] = target: HIV-1 Env of pseudovirus SF162 (HIV-1) (UniProt P19550)
[21] = target: HIV-1 Env of pseudovirus T257 (HIV-1); remark: listed apart in the source
[22] = target: HIV-1 Env of pseudovirus THRO (HIV-1); remark: listed apart in the source
[23] = target: HIV-1 Env of pseudovirus X1632 (HIV-1); remark: listed apart in the source
[24] = target: HIV-1 Env of pseudovirus X2088 (HIV-1); remark: listed apart in the source
[25] = target: HIV-1 Env of pseudovirus ZM106 (HIV-1); remark: listed apart in the source
[26] = target: HIV-1 Env of pseudovirus ZM197 (HIV-1); remark: listed apart in the source
[27] = target: HIV-1 Env of pseudovirus pCNE8 (HIV-1); remark: listed apart in the source
[28] = target: HIV-1 Env of pseudovirus SF162 (HIV-1) (UniProt P19550); remark: listed apart in the source

Substance | IC50, neutralization of 278 PsV [1] [µg/mL] | IC50, neutralization of 3817 PsV [2] [µg/mL] | IC50, neutralization of BG505 PsV [3] [µg/mL] | IC50, neutralization of Du422 PsV [4] [µg/mL] | IC50, neutralization of JRCSF PsV [5] [µg/mL] | IC50, neutralization of PV0 PsV [6] [µg/mL] | IC50, neutralization of T257 PsV [7] [µg/mL] | IC50, neutralization of THRO PsV [8] [µg/mL] | IC50, neutralization of X1632 PsV [9] [µg/mL] | IC50, neutralization of X2088 PsV [10] [µg/mL] | IC50, neutralization of ZM106 PsV [11] [µg/mL] | IC50, neutralization of ZM197 PsV [12] [µg/mL] | IC50, neutralization of pCNE8 PsV [13] [µg/mL] | IC50, neutralization of 278 PsV [14] [nM] | IC50, neutralization of 3817 PsV [15] [nM] | IC50, neutralization of BG505 PsV [16] [nM] | IC50, neutralization of Du422 PsV [17] [nM] | IC50, neutralization of JRCSF PsV [18] [nM] | IC50, neutralization of PV0 PsV [19] [nM] | IC50, neutralization of SF162 PsV [20] [nM] | further results
10E8v4 IgG (antibody) | 1.8 | 3.1 | 1.4 | 0.55 | 1.8 | 6.3 | 1.5 | 0.37 | 2.02 | > 50 | > 50 | 0.19 | 0.96 | 12 | 21 | 9 | 3.7 | 12 | 42 | 20 | IC50, neutralization of T257 PsV [21]: 9.8 nM; IC50, neutralization of THRO PsV [22]: 2.5 nM; IC50, neutralization of X1632 PsV [23]: 13 nM; IC50, neutralization of X2088 PsV [24]: > 100 nM; IC50, neutralization of ZM106 PsV [25]: > 100 nM; IC50, neutralization of ZM197 PsV [26]: 1.3 nM; IC50, neutralization of pCNE8 PsV [27]: 6.4 nM
32-I multabody (PGDM1400 scFab-human apoferritin : scFc-N-Ferritin : iMab A12P scFab-C-Ferritin : 10E8v4 scFab-C-Ferritin, 4:2:1:1) | 0.008 | 1.8 | 0.0026 | 0.7 | 0.004 | 0.12 | 0.0015 | 0.033 | 0.008 | 3.1 | 0.0031 | 0.0044 | 0.0013 | 0.0035 | 0.79 | 0.0011 | 0.31 | 0.0017 | 0.052 | 1.1 | IC50, neutralization of SF162 PsV [28]: 2.5 µg/mL; IC50, neutralization of T257 PsV [21]: 0.00068 nM; IC50, neutralization of THRO PsV [22]: 0.014 nM; IC50, neutralization of X1632 PsV [23]: 0.0034 nM; IC50, neutralization of X2088 PsV [24]: 1.3 nM; IC50, neutralization of ZM106 PsV [25]: 0.0014 nM; IC50, neutralization of ZM197 PsV [26]: 0.0019 nM; IC50, neutralization of pCNE8 PsV [27]: 0.57 pM
32-N multabody (PGDM1400 scFab-human apoferritin : scFc-N-Ferritin : N49P7 scFab-C-Ferritin : 10E8v4 scFab-C-Ferritin, 4:2:1:1) | 0.009 | 9.1 | 0.0045 | 2.5 | 0.0054 | 0.33 | 0.0037 | 0.058 | 0.0045 | 5.2 | 0.0089 | 0.0096 | 0.0032 | 0.0039 | 3.9 | 0.0019 | 1.08 | 0.0023 | 0.15 | 0.58 | IC50, neutralization of SF162 PsV [28]: 1.3 µg/mL; IC50, neutralization of T257 PsV [21]: 0.0016 nM; IC50, neutralization of THRO PsV [22]: 0.025 nM; IC50, neutralization of X1632 PsV [23]: 0.002 nM; IC50, neutralization of X2088 PsV [24]: 2.3 nM; IC50, neutralization of ZM106 PsV [25]: 0.0039 nM; IC50, neutralization of ZM197 PsV [26]: 0.0042 nM; IC50, neutralization of pCNE8 PsV [27]: 0.0014 nM
N6/PGDM1400x10E8v4 trispecific antibody | 1.2 | 1.2 | 0.059 | 0.19 | 0.026 | 1.3 | 0.028 | 0.31 | 0.03 | 0.56 | 0.017 | 0.073 | 0.024 | 7.1 | 6.7 | 0.34 | 1.1 | 0.15 | 7.2 | 1.9 | IC50, neutralization of SF162 PsV [28]: 0.33 µg/mL; IC50, neutralization of T257 PsV [21]: 0.16 nM; IC50, neutralization of THRO PsV [22]: 1.7 nM; IC50, neutralization of X1632 PsV [23]: 0.17 nM; IC50, neutralization of X2088 PsV [24]: 3.2 nM; IC50, neutralization of ZM106 PsV [25]: 0.1 nM; IC50, neutralization of ZM197 PsV [26]: 0.42 nM; IC50, neutralization of pCNE8 PsV [27]: 0.14 nM
N49P7 IgG (antibody) | > 50 | 3.3 | 0.21 | 10 | 0.12 | 0.28 | 1.2 | 7.5 | > 50 | 0.38 | 0.18 | 0.58 | 0.28 | > 100 | 22 | 1.4 | 66 | 0.85 | 1.9 | 1 | IC50, neutralization of SF162 PsV [28]: 0.15 µg/mL; IC50, neutralization of T257 PsV [21]: 8.3 nM; IC50, neutralization of THRO PsV [22]: 50 nM; IC50, neutralization of X1632 PsV [23]: > 100 nM; IC50, neutralization of X2088 PsV [24]: 2.5 nM; IC50, neutralization of ZM106 PsV [25]: 1.2 nM; IC50, neutralization of ZM197 PsV [26]: 3.9 nM; IC50, neutralization of pCNE8 PsV [27]: 1.8 nM
PGDM1400 IgG (antibody) | 0.16 | > 50 | 0.0032 | 6 | 0.0074 | 1.3 | 0.012 | 0.09 | 0.018 | > 50 | 0.013 | 0.11 | 0.0027 | 1.1 | > 100 | 0.02 | 40 | 0.049 | 8.4 | > 100 | IC50, neutralization of SF162 PsV [28]: > 50 µg/mL; IC50, neutralization of T257 PsV [21]: 0.08 nM; IC50, neutralization of THRO PsV [22]: 0.61 nM; IC50, neutralization of X1632 PsV [23]: 0.12 nM; IC50, neutralization of X2088 PsV [24]: > 100 nM; IC50, neutralization of ZM106 PsV [25]: 0.084 nM; IC50, neutralization of ZM197 PsV [26]: 0.68 nM; IC50, neutralization of pCNE8 PsV [27]: 0.018 nM
